Test results taken from paper PMC5771497.

Legend:
[1] = target: T1, PRC2 5-mer (EZH2-EED-SUZ12-RBBP4-AEBP2) (Homo sapiens, UniProt Q15910-2;O75530;Q15022;Q09028;Q6ZN18 1-751;1-441;1-739;1-425;1-517); experiment: fluorescence polarization
[2] = target: T1, PRC2 5-mer (EZH2-EED-SUZ12-RBBP4-AEBP2); experiment: competition
[3] = target: T1, PRC2 5-mer (EZH2-EED-SUZ12-RBBP4-AEBP2); experiment: EMSA
[4] = target: T1, PRC2 5-mer (EZH2-EED-SUZ12-RBBP4-AEBP2); experiment: competition; remark: listed apart in the source

B1: (CG)30 dsDNA (dsDNA)
DNA 1: CGCGCGCGCGCGCGCGCGCGCGCGCGCGCGCGCGCGCGCGCGCGCGCGCGCGCGCGCGCG
DNA 2: CGCGCGCGCGCGCGCGCGCGCGCGCGCGCGCGCGCGCGCGCGCGCGCGCGCGCGCGCGCG
B1: binds [1].

AAAAAAAAAAAAAAAAAAAAAAAAAAAAAAAAAAAAAAAA (ssRNA) [Poly(A)40 RNA]: no binding [2].

B2: (mCpG)24 dsDNA (dsDNA)
DNA 1: CGCGCGCGCGCGCGCGCGCGCGCGCGCGCGCGCGCGCGCGCGCGCGCG
DNA 2: CGCGCGCGCGCGCGCGCGCGCGCGCGCGCGCGCGCGCGCGCGCGCGCG
modifications: 5-methyl-C at CpG
For B2, the Kd [3] was 11.3 ± 6.2 nM.

GGAAGGAAGGAAGGAAGGAAGGAAGGAAGGAAGGAAGGAA (structured_RNA) [(GGAA)10 RNA]: binds [4].
